# Measurements taken from patent US20140271699A1 (US Dept. of Health and Human Services, published 2014).
# B1: AM22 antibody (antibody, V domains shown)
# VH: QVQLVQSGAEVKKPGATVKVSCKISGHTLIKLSIHWVRQAPGKGLEWMGGYEGEVDEIFYAQKFQHRLTVIADTATDTVYMELGRLTSDDTAVYFCGTLGVTVTEAGLGIDDYWGQGTLVTVSS
# VL: EIVLTQSPGTLSLSPGERATLSCRASQIVSRNHLAWYQQKPGQAPRLLIFGASSRATGIPVRFSGSGSGTDFTLTINGLAPEDFAVYYCLSSDSSIFTFGPGTKVDFKR
# Molecular target: RSV F glycoprotein as expressed by RSV (on RSV-infected HEp-2 cells / on virus) (RSV (strain  for this assay), UniProt P03420 26-109; P03420 137-574)
# Sequence (P03420 26-109, chain 1 of 2): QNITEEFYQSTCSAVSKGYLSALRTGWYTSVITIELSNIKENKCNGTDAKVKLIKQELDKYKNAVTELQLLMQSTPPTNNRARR
# Sequence (P03420 137-574, chain 2 of 2): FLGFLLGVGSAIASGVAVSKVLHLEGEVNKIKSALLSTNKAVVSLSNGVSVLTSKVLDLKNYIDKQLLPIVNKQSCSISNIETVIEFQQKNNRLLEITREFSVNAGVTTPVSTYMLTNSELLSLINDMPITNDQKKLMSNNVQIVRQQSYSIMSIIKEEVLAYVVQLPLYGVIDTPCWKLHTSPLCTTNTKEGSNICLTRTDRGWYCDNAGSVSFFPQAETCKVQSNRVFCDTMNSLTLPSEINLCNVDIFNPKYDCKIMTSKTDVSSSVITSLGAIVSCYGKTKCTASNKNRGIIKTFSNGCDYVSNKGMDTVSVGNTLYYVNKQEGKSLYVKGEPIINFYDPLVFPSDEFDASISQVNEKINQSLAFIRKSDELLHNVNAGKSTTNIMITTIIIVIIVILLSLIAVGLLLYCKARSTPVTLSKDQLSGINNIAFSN
# Experiment: cell-based or functional assay
binder,measurement,value
B1,"RSV neutralization (flow cytometry, RSV-GFP on HEp-2 cells), potency relative to palivizumab",~50 fold
